Assay results published in patent US20100323397.

Target: T1, wild type (WT) VirD2 protein, Agrobacterium tumefaciens str. C58 (UniProt P18592)
T1 sequence: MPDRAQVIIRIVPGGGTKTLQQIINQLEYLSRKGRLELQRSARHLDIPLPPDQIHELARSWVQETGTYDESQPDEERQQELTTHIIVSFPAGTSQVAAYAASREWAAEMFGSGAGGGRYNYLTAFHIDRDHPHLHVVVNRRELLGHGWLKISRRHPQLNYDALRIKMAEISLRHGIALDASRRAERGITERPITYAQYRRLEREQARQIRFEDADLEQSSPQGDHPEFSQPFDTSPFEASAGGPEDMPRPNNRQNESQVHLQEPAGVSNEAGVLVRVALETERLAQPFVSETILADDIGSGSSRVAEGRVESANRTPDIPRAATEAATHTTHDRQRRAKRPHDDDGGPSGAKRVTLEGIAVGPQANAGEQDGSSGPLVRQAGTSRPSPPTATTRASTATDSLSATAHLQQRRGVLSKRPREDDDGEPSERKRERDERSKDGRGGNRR

plant caspase (putative subtilisin-like (serine) protease, PSLP) from tobacco
Western (immunoblotting) analysis of degradation by plant caspase: degradation of wild type (WT) VirD2 protein by plant caspase (lane 2)
